# Measurements reported in article PMC13534887.
# Molecular target: PaMprF H566C mutant (Pseudomonas aeruginosa)
# Experiment: cross-linking + native gel or EMSA; purified enzymes in GDN and in nanodisc, with cross-linker; SDS added to the sample before loading on the BN-PAGE gel
substance,measurement,value
PaMprF H566C mutant (enzyme),stoichiometry N,2
